Results: paper PMC6345565
Like-named read-outs stand apart in the source and are kept apart here.

Tests used:
[1] = target: Oregon Green-labeled DAT C13 peptide (not stated (human DAT is named for the β2-DAT8 constructs)); experiment: fluorescence polarisation; saturation: PICK1 diluted to various concentrations, 20 nM OrG DAT C13; 50 mM Tris pH 7.4, 125 mM NaCl, 1 mM DTT, 0.01% Triton X-100; 30 min on ice
[2] = target: TAC-YFP-DAT C24 (C-terminus of the dopamine transporter on TAC-YFP) (not stated | not stated (human DAT is named for the β2-DAT8 constructs)); experiment: supported cell membrane sheets (SCMS), confocal microscopy, competition binding; 100 nM labelled SNAP-PICK1 premixed with increasing unlabelled PICK1 WT, 120 min, on sheets expressing TAC-YFP-DAT; half maximal binding reported as Ki*
[3] = target: FLAG-β2 DAT8 LKI (rat (Rattus norvegicus) | human); experiment: supported cell membrane sheets (SCMS), confocal microscopy, saturation binding of exchanged dimers; monomers purified in 0.1% TX-100, mixed and diluted at least 100-times to form WT/WT or WT/A87L dimers (A87L in 4 times excess); sheets expressing LKV or LKI; read in the WT and the A87L channel; apparent (Kd*)
[4] = target: FLAG-β2 DAT8 LKI (rat (Rattus norvegicus) | human); experiment: supported cell membrane sheets (SCMS), confocal microscopy, association time course; PICK1 binding as a function of incubation time; PICK1 100 nM for LKV and LKI
[5] = target: TAC-YFP-DAT C24 (C-terminus of the dopamine transporter on TAC-YFP) (not stated | not stated (human DAT is named for the β2-DAT8 constructs)); experiment: as above
[6] = target: FLAG-β2 DAT8 LKI (rat (Rattus norvegicus) | human); experiment: as above; remark: listed apart in the source
[7] = target: FLAG-β2 DAT8 LKI (rat (Rattus norvegicus) | human); experiment: supported cell membrane sheets (SCMS), confocal microscopy, dissociation time course; PICK1 dissociation from sheets expressing LKV (two-state fit) or LKI (one-state fit)
[8] = target: FLAG-β2 DAT8 LKA (rat (Rattus norvegicus) | human); experiment: supported cell membrane sheets (SCMS), confocal microscopy, saturation binding; labelled PICK1 in sheet buffer (120 mM KCl, 2 mM MgCl2, 0.1 mM CaCl2, 10 mM HEPES, 30 mM glucose pH 7.35) overlaid for 2 h on ice on sheets from transfected HEK293 GripTite cells; PICK1 signal divided by receptor signal; apparent affinity (Kd*), headed EC50 in the tables
[9] = target: FLAG-β2 DAT8 LKI (rat (Rattus norvegicus) | human); experiment: as above
[10] = target: TAC-YFP-DAT C24 (C-terminus of the dopamine transporter on TAC-YFP) (not stated | not stated (human DAT is named for the β2-DAT8 constructs)); experiment: as above
[11] = target: TAC-YFP-GluA2 (24 C-terminal residues of GluA2 on the IL-2 receptor α-subunit fused to YFP) (not stated | rat (Rattus norvegicus)); experiment: as above

Question: With “PICK1 WT without SNAP-tag (from UniProt Q9EP80 1-416) (natural protein)” as the substance, how does the Kd [1] read?
Answer: The Kd was 9000 nM.

Question: And the IC50 [2]?
Answer: The IC50 was 29 nM.

Question: For “PICK1 WT/A87L heterodimer (from UniProt Q9EP80 1-416; Q9EP80 1-416) (complex)”, which EC50 [3] is on record?
Answer: Its EC50 is 123 nM.

Question: Which time to half maximum binding [4] does the source give for “SNAP-PICK1 WT (PICK1 with an N-terminal SNAP-tag, fluorescently labelled) (from UniProt Q9EP80 1-416) (natural protein)” here?
Answer: The time to half maximum binding was 14 min.

Question: What about the time to half maximum binding [5] of the same substance?
Answer: The time to half maximum binding was 19 min.

Question: And the time to half maximum binding [6]?
Answer: The time to half maximum binding was 11 min.

Question: And the dissociation half-life [7]?
Answer: The dissociation half-life was 7.18 h.

Question: And the EC50 [8]?
Answer: The EC50 was 59 nM.

Question: What about the EC50 [9] of the same substance?
Answer: The EC50 was 29 nM.

Question: And the Kd* (apparent affinity) [9]?
Answer: Its Kd* (apparent affinity) is 39 nM.

Question: And the EC50 [10]?
Answer: Its EC50 is 47 nM.

Question: And the EC50 [11]?
Answer: Its EC50 is 73 nM.
